Assay [1] has as its target T1, human FcRn (soluble, complexed with β2-microglobulin) (human, UniProt P61769 21-119). As to the kind of experiment: SPR pH7.0.
The target of assay [2] is T1, human FcRn (soluble, complexed with …). As to the kind of experiment: SPR pH7.0. The source holds these as a separate data set.
Assay [3] deals with T2, mouse FcγRIII (mouse, UniProt P08508 31-215).
T2 construct: bought; also called mFcgRIII
T2 sequence (looked up): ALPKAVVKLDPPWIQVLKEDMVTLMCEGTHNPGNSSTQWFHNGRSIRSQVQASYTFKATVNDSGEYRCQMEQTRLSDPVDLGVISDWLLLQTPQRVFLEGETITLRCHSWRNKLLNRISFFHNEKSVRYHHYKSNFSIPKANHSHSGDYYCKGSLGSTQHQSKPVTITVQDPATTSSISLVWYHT
As to the kind of experiment: SPR pH7.4.

Assay [4] addresses T3, mouse FcγRI (mouse, UniProt P26151 25-297).
T3 construct: bought; also called mFcgRI
T3 sequence (looked up): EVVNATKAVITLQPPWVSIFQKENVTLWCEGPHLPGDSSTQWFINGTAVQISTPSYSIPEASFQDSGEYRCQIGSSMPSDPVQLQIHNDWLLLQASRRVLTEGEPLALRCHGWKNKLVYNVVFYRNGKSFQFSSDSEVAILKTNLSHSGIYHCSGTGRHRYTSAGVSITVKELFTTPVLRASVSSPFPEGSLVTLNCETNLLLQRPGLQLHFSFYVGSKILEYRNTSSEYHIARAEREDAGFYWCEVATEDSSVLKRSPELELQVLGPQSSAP
As to the kind of experiment: SPR pH7.4.

For assay [5], the target named is T4, mouse FcγRIIb (mouse, UniProt P08101 40-217, limits assumed).
T4 construct: bought; also called mFcgRIIb; mFcgRII
T4 sequence (looked up): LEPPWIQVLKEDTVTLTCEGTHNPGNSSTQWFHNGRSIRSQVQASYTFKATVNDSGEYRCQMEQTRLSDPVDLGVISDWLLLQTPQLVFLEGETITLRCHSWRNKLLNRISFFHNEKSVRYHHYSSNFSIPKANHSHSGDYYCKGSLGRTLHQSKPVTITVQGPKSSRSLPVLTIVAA
As to the kind of experiment: SPR pH7.4.

The target of assay [6] is T5, mouse FcγRIV (mouse, UniProt A0A0B4J1G0 21-203).
T5 construct: bought; also called mFcgRIV
T5 sequence: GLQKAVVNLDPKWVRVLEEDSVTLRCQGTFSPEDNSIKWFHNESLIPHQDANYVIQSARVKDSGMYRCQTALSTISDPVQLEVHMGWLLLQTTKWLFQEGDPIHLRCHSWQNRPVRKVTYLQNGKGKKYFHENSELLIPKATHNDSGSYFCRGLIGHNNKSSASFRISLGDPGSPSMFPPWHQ
As to the kind of experiment: SPR pH7.4.

Assay [7] concerns the target T1, human FcRn (soluble, complexed with …). As to the kind of experiment: SPR pH7.0. This is another data set of the same source.
Assay [8] shares this target. As to the kind of experiment: SPR pH7.0. The source holds these as a separate data set.
Assay [9] shares this target. As to the kind of experiment: SPR pH7.0. This is another data set of the same source.
The target in assay [10] is T2, mouse FcγRIII. As to the kind of experiment: SPR pH7.4. This is another data set of the same source.
Assay [11] has as its target T3, mouse FcγRI. As to the kind of experiment: SPR pH7.4. This is another data set of the same source.
Assay [12] deals with T4, mouse FcγRIIb. As to the kind of experiment: SPR pH7.4. The source holds these as a separate data set.
The target of assay [13] is T5, mouse FcγRIV. As to the kind of experiment: SPR pH7.4. The source holds these as a separate data set.
Assay [14] deals with T1, human FcRn (soluble, complexed with …). As to the kind of experiment: SPR pH7.0. This is another data set of the same source.
Assay [15] shares this target. As to the kind of experiment: SPR pH7.0. This is another data set of the same source.
The target is the same in assay [16]. As to the kind of experiment: SPR pH7.0. This is another data set of the same source.
Assay [17] addresses T6, soluble human IL-6 receptor (human, UniProt P08887 20-357).
T6 construct: also called hsIL-6R
T6 sequence: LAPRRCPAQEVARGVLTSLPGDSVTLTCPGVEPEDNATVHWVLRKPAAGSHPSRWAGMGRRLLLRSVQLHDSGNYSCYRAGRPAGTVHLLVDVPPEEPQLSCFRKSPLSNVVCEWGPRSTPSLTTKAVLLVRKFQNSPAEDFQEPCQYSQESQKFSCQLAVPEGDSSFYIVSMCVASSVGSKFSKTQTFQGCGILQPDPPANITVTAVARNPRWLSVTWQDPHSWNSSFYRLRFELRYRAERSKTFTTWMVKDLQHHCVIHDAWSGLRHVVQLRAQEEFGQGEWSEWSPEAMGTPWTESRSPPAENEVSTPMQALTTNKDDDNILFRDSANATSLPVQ
As to the kind of experiment: SPR 37C, 3 µM Ca, estimated from Req.

For assay [18], the target named is T6, soluble human IL-6 receptor. As to the kind of experiment: SPR 37C, 3 µM CaCl2.

Where two headings read alike, the source gives them in different places.

T1 sequence (P61769 21-119, one chain of several): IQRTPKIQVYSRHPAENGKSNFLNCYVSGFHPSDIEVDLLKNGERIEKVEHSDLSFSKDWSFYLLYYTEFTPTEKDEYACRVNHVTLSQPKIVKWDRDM

B1: VH3/L(WT)-IgG1-F21 (antibody)
chain 1: QVQLQESGPGLVKPSETLSLTCAVSGHSISHDHAWSWVRQPPGEGLEWIGFISYSGITNYNPSLQGRVTISRDNSKNTLYLQMNSLRAEDTAVYYCARSLARTTAMDYWGEGTLVTVSSASTKGPSVFPLAPSSKSTSGGTAALGCLVKDYFPEPVTVSWNSGALTSGVHTFPAVLQSSGLYSLSSVVTVPSSSLGTQTYICNVNHKPSNTKVDKKVEPKSCDKTHTCPPCPAPELLGGPSVFLFPPKPKDTLYISRTPEVTCVVVDVSHEDPEVKFNWYVDGVEVHNAKTKPREEQYNSTYRVVSVLTPLHQDWLNGKEYKCKVSNKALPAPIEKTISKAKGQPREPQVYTLPPSRDELTKNQVSLTCLVKGFYPSDIAVEWESNGQPENNYKTTPPVLDSDGSFFLYSKLTVDKSRWQQGNVFSCSVMHEALHYHYTQKSLSLSP
chain 2: not shown
In the case of B1, the Kd in assay [1], in assay [2] and in [7] was 0.03 µM in each case. Moreover, the binding amount is 371 RU with mouse FcγRIII [3], 315 RU with mouse FcγRI [4], 112 RU with mouse FcγRIIb [5] and 242 RU with mouse FcγRIV [6].

B2: VH3/L(WT)-IgG1-F140 (antibody)
chain 1: QVQLQESGPGLVKPSETLSLTCAVSGHSISHDHAWSWVRQPPGEGLEWIGFISYSGITNYNPSLQGRVTISRDNSKNTLYLQMNSLRAEDTAVYYCARSLARTTAMDYWGEGTLVTVSSASTKGPSVFPLAPSSKSTSGGTAALGCLVKDYFPEPVTVSWNSGALTSGVHTFPAVLQSSGLYSLSSVVTVPSSSLGTQTYICNVNHKPSNTKVDKKVEPKSCDKTHTCPPCPAPELLGGPKVFLFPPKPKDTLYISRTPEVTCVVVDVSHEDPEVKFNWYVDGVEVHNAKTKPREEQYNSTYRVVSVLTPLHQDWLNGKEYKCKVSNKALPAPIEKTISKAKGQPREPQVYTLPPSRDELTKNQVSLTCLVKGFYPSDIAVEWESNGQPENNYKTTPPVLDSDGSFFLYSKLTVDKSRWQQGNVFSCSVMHEALHYHYTQKSLSLSP
chain 2: not shown
Take B2: the Kd in assay [8], in assay [1] and in [7] was 0.036 µM in each case. Also, the values for the binding amount with mouse FcγRIII [3], with mouse FcγRIIb [5] and with mouse FcγRIV [6] were 46.6 RU, -1.8 RU and 108 RU, respectively.

B3: VH3/L(WT)-IgG1-F939 (antibody)
chain 1: QVQLQESGPGLVKPSETLSLTCAVSGHSISHDHAWSWVRQPPGEGLEWIGFISYSGITNYNPSLQGRVTISRDNSKNTLYLQMNSLRAEDTAVYYCARSLARTTAMDYWGEGTLVTVSSASTKGPSVFPLAPSSKSTSGGTAALGCLVKDYFPEPVTVSWNSGALTSGVHTFPAVLQSSGLYSLSSVVTVPSSSLGTQTYICNVNHKPSNTKVDKKVEPKSCDKTHTCPPCPAPELRGGPKVFLFPPKPKDTLYISRTPEVTCVVVDVSHEDPEVKFNWYVDGVEVHNAKTKPREEQYNSTYRVVSVLTVLHQDWLNGKEYKCKVSNKALPAPIEKTISKAKGQPREPQVYTLPPSRDELTKNQVSLTCLVKGFYPSDIAVEWESNGQPENNYKTTPPVLDSDGSFFLYSKLTVDKSRWQQGNVFSCSVMHEALHYHVTQKSLSLSP
chain 2: not shown
As for B3, the Kd in assay [9] is 0.153 µM; in assay [14] it was 0.15 µM; in assay [15], 0.15 µM. In addition, the binding amount with mouse FcγRIII [10] was -24.9 RU; with mouse FcγRI [11] it was -2 RU; with mouse FcγRIIb [12], -6.3 RU; with mouse FcγRIV [13] it was -7.3 RU.

B4: VH3/L(WT)-IgG1-F157 (antibody)
chain 1: QVQLQESGPGLVKPSETLSLTCAVSGHSISHDHAWSWVRQPPGEGLEWIGFISYSGITNYNPSLQGRVTISRDNSKNTLYLQMNSLRAEDTAVYYCARSLARTTAMDYWGEGTLVTVSSASTKGPSVFPLAPSSKSTSGGTAALGCLVKDYFPEPVTVSWNSGALTSGVHTFPAVLQSSGLYSLSSVVTVPSSSLGTQTYICNVNHKPSNTKVDKKVEPKSCDKTHTCPPCPAPELLGGPSVFLFPPKPKDTLMISRTAEVTCVVVDVSHEDPEVKFNWYVDGVEVHNAKTKPREEQYNSTYRVVSVLTPLHQDWLNGKEYKCKVSNKALPAPIEKTISKAKGQPREPQVYTLPPSRDELTKNQVSLTCLVKGFYPSDIAVEWESNGQPENNYKTTPPVLDSDGSFFLYSKLTVDKSRWQQGNVFSCSVLHEALHYHYTQKSLSLSP
chain 2: not shown
For the molecule B4, the Kd in assay [8] and in [1] was 0.15 µM in each case. Moreover, the binding amount was found to be 276 RU with mouse FcγRIII [3], 315 RU in the assay with mouse FcγRI [4], 129 RU in the assay with mouse FcγRIIb [5] and 243 RU with mouse FcγRIV [6].

B5: VH3/L(WT)-IgG1-F424 (antibody)
chain 1: QVQLQESGPGLVKPSETLSLTCAVSGHSISHDHAWSWVRQPPGEGLEWIGFISYSGITNYNPSLQGRVTISRDNSKNTLYLQMNSLRAEDTAVYYCARSLARTTAMDYWGEGTLVTVSSASTKGPSVFPLAPSSKSTSGGTAALGCLVKDYFPEPVTVSWNSGALTSGVHTFPAVLQSSGLYSLSSVVTVPSSSLGTQTYICNVNHKPSNTKVDKKVEPKSCDKTHTCPPCPAPELLGGPKVFLFPPKPKDTLMISRTAEVTCVVVDVSHEDPEVKFNWYVDGVEVHNAKTKPREEQYNSTYRVVSVLTPLHQDWLNGKEYKCKVSNKALPAPIEKTISKAKGQPREPQVYTLPPSRDELTKNQVSLTCLVKGFYPSDIAVEWESNGQPENNYKTTPPVLDSDGSFFLYSKLTVDKSRWQQGNVFSCSVLHEALHYHYTQKSLSLSP
chain 2: not shown
Regarding B5, the Kd in assay [1] and in assay [16] was 0.094 µM in each case. Further, the binding amount in the assay with mouse FcγRIIb [5] was -2.5 RU; in the assay with mouse FcγRIV [6], 138 RU.

B6: FH4-IgG1 (antibody, V domains shown)
VH: QVQLVQSGAEVKKPGSSVKVSCKASGGTFSSYAISWVRQAPGQGLEWMGGIIPIFGTANYAQKFQGRVTITADESTSTAYMELSSLRSEDTAVYYCARERDYYDSSGYYDAFDIWGQGTMVTVSS
VL: ETTVTQSPSFLSASVGDRVTITCITTTDIDDDMNWFQQEPGKAPKLLISEGNILRPGVPSRFSSSGYGTDFTLTISKLQPEDFATYYCLQSDNLPFTFGQGTKLEIKR
As to B6, the results for the Kd in assay [17] and in [18] were roughly 34 µM and no less than 34 µM, respectively.

B7: 6RL#9-IgG1 (antibody, V domains shown)
VH: QVQLVQSGAEVKKPGASVKVSCKASGYTFTSYYMHWVRQAPGQGLEWMGIINPSGGSTSYAQKFQGRVTMTRDTSTSTVYMELSSLRSEDTAVYYCARDDPGGGEYYFDYWGQGTLVTVSS
VL: QSVLTQPPSVSGAPGQRVTISCTGSRSNMGAGYDVHWYQLLPGAAPKLLISHNTHRPSGVPDRFSGSKSGASASLAITGLQAEDEADYYCQSHDSSLSAVVFGGGTKLTVLS
As to B7, the Kd was roughly 31 µM in [17] and no less than 31 µM in [18].

By Kd is commonly meant the concentration at which binding is half-saturated.

The values are drawn from patent EP2698431B1 (Chugai Seiyaku Kabushiki Kaisha, dated 2020).
